We go through 2 substances from patent publication CN114075285A.

Assay [1] has as its target CD38 antigen on the cell surface (Daudi cells; NCI-H929 cells) (human) (UniProt P28907). The assay is described as follows: cell-based or functional assay.
In assay [2] the target is CD38 (human), analyte in Biacore (human) (UniProt P28907). In words: SPR (Biacore 8K), antibody captured on Protein A chip, CD38 as analyte, 25℃. On the technique in general: SPR reads the build-up and loss of mass on a sensor chip optically.

In the case of Isotype control (antibody), in assay [1], the ADCC reporter (Jurkat-Lucia-NFAT-CD16 + NCI-H929), EC50(μg/mL) is 0.375 µg/mL and the ADCC reporter (Jurkat-Lucia-NFAT-CD16 + NCI-H929), Top MFI was determined as 2120.

Regarding RB0021 PC(Daratumumab) (antibody), the Kd (in general, the free concentration of one partner at which half of the binding sites on the other are occupied at equilibrium, for simple one-to-one binding) in assay [2] was 88.6 nM. Besides, in assay [1], the ADCC reporter (Jurkat-Lucia-NFAT-CD16 + NCI-H929), EC50(μg/mL) turned out to be 0.017 µg/mL and the ADCC reporter (Jurkat-Lucia-NFAT-CD16 + NCI-H929), Top MFI came out at 57200.
